Results as given in PMC9405658.

Target: YadA (Yersinia adhesin A) displayed on E. coli BL21 DE3 cells (Yersinia enterocolitica) (UniProt P0C2W0)
Test: fluorescence cell-binding assay (eluted FAM-aptamer)
Settings: 1.4 mM Mg2+; whole cells; authors say true Kd for pure YadA is probably higher; Kd: PBS 1x pH 7.4 (137 mM NaCl, 2.7 mM KCl, 8 mM Na2HPO4, 2 mM KH2PO4) + 1.4 mM MgCl2, 37 C, 75 min, 0-100 nM aptamer; sensor: inactivated cells in PBS 1x pH 7.

Sequence of UniProt P0C2W0 (P0C2W0 whole entry): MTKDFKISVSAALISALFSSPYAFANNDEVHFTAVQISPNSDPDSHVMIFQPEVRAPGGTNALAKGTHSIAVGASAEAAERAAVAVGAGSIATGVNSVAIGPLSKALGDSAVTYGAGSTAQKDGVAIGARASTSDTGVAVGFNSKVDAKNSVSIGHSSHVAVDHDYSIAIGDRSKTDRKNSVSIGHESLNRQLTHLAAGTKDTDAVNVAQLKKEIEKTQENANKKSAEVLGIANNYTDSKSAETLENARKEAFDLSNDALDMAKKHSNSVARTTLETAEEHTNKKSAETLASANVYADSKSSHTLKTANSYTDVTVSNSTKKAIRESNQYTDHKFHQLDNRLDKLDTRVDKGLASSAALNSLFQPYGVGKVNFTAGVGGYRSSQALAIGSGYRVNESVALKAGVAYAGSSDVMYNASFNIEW

Question: Which Kd does the source give for “ATCCAGAGTGACGCAGCATGACAGACGGGAGAGACACGACGGGGGCGGGGAGTGAGAAGCGCGCGCTGAATGTCGTTGGTGGCCC [Apt1 (FAM)]” here?
Answer: Its Kd is 11 nM.
